Results reported in publication PMC7888707.

How the values were obtained:
[1] = biological target: PECAM-1–GFP (wild type, stably expressed in HL-60 cells) (human) (UniProt P16284); assay: FRET or BRET; FLIM measurement of FRET between the GFP and RFP tags in dHL-60 cells perfused (1.5 dynes/cm2) over TNF-activated HUVEC monolayers, fixed in 4% PFA in mid-TEM; read at breached junctions
[2] = biological target: PECAM-1–GFP (wild type, stably expressed in HL-60 cells) (human) (UniProt P16284); assay: FRET or BRET; FLIM measurement of FRET between the GFP and RFP tags in HL-60 cells plated on poly-L-lysine-coated coverslips at 37°C for 5 min, fixed in 4% PFA (resting, not in TEM)
[3] = biological target: PECAM-1–GFP (wild type, stably expressed in HL-60 cells) (human) (UniProt P16284); assay: FRET or BRET; FLIM measurement of FRET between the GFP and RFP tags in dHL-60 cells perfused (1.5 dynes/cm2) over IL-1β-activated HUVEC monolayers, fixed in 4% PFA in mid-TEM; read at breached junctions

FRET efficiency [1]: 5.39%
FRET efficiency [2]: 0.982%
FRET efficiency [3]: 1.21%
Substance: L-selectin–RFP (wild type, stably expressed in HL-60 cells) (from UniProt P14151 39-372) (natural protein)
